{"source": "paper PMC3369931", "test_in_all_cases": "EMSA", "key": {"[1]": {"test_system": "EutV ANTAR (Enterococcus faecalis (V583?))", "conditions": "10 mM Mg2+; 50 mM Hepes pH 7.5, 150 mM NaCl, 10 mM MgCl2, 2.5 ng/ul yeast tRNA, ~2 fmol RNA in 10 ul, 30 min at 25 C; EMSA on 5% native TBE gel, or DRaCALA on …"}, "[2]": {"test_system": "EutV ANTARcc (Enterococcus faecalis (V583?))", "conditions": "10 mM Mg2+; 50 mM Hepes pH 7.5, 150 mM NaCl, 10 mM MgCl2, 2.5 ng/ul yeast tRNA, ~2 fmol RNA in 10 ul, 30 min at 25 C; EMSA on 5% native TBE gel, or DRaCALA on …"}, "[3]": {"test_system": "EutV full length (Enterococcus faecalis (V583?))", "conditions": "unphosphorylated; 10 mM Mg2+; 50 mM Hepes pH 7.5, 150 mM NaCl, 10 mM MgCl2, 2.5 ng/ul yeast tRNA, ~2 fmol RNA in 10 ul, 30 min at 25 C; EMSA on 5% native TBE gel, or DRaCALA on …"}}, "data": [{"sequence": "GGGCAAAGAAUCAGAAACACAAUGGCGUGUUUUAACAAUCGGCAAAGGAGCCCAAGACUAAGUACGUG [eutP 5' leader dual hairpin RNA, wild type]", "values": [{"measurement": "binding signal (fold weaker than ANTARcc)", "setting": "[1]", "value": 100}, {"measurement": "Kd", "setting": "[2]", "value": 0.7, "unit": "µM"}, {"measurement": "Kd", "setting": "[3]", "value": 10, "unit": "µM"}]}]}
